In patent publication US20060216303A1 (published 2006):

Columns and labels:
[1] = target: T1, synthetic polypeptide 20-mer … of the breast mucin tandem repeat; experiment: binding to synthetic 20-mer
T1 construct: also called synthetic peptide started at the beginning of the 20 amino acid repeat

[2] = target: T2, synthetic polypeptide 20-mer APPAHGVTSAPDTRPAPGST of the breast mucin tandem repeat; experiment: binding to synthetic 20-mer
T2 construct: also called synthetic peptide started in the middle of the repeat
T2 peptide: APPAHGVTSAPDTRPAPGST

T1 sequence (peptide, as listed by the source): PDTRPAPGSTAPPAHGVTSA

B1: murine BrE-3 monoclonal antibody (antibody, V domains shown)
VH: EVKLEESGGGLVQPGGSMKLSCAASGFTFSDAWMDWVRQSPEKGLEWVAEIRNKANNHATYYDESVKGRFTISRDDSKSRVYLQMISLRAEDTGLYYCTGEFANWGQGTLVTVSA
VL: DVVMTQTPLSLPVSLGDQASISCRSSQNLVHNNGNTYLYWFLQKSGQSPKLLIYRASIRFSGVPDRFSGSGSETDFTLKISRVEAEDLGVYFCFQGTHVPWTFGGGTKLEIK
notes: Whole murine antibody; The entries are printed with a 19-residue leader; also called anti-BrE-3 murine antibody; murine BrE-3 antibody
B1: binds [1]; binds [2].
